# Measurements published in publication PMC6457538.
# pKd: −log10 of the molar value.
# Biological target: HoLaMa DNA polymerase (Klenow sub-fragment lacking the 3'-5' exonuclease domain) (UniProt P00582)
# Assay: intrinsic tryptophan fluorescence quenching titration
# Details: 500 nM enzyme; n = 1.24 ± 0.03 DNA per enzyme; no dNTP; Kd titration: 50 mM sodium phosphate pH 8.0, 50 mM NaCl, temperature not stated in the material; stopped-flow: 50 mM Tris-HCl pH 8.0, 0.5 mM EDTA, 10 mM MgCl2 …
# Chain of UniProt P00582 (P00582 whole entry, the tested form may be a part): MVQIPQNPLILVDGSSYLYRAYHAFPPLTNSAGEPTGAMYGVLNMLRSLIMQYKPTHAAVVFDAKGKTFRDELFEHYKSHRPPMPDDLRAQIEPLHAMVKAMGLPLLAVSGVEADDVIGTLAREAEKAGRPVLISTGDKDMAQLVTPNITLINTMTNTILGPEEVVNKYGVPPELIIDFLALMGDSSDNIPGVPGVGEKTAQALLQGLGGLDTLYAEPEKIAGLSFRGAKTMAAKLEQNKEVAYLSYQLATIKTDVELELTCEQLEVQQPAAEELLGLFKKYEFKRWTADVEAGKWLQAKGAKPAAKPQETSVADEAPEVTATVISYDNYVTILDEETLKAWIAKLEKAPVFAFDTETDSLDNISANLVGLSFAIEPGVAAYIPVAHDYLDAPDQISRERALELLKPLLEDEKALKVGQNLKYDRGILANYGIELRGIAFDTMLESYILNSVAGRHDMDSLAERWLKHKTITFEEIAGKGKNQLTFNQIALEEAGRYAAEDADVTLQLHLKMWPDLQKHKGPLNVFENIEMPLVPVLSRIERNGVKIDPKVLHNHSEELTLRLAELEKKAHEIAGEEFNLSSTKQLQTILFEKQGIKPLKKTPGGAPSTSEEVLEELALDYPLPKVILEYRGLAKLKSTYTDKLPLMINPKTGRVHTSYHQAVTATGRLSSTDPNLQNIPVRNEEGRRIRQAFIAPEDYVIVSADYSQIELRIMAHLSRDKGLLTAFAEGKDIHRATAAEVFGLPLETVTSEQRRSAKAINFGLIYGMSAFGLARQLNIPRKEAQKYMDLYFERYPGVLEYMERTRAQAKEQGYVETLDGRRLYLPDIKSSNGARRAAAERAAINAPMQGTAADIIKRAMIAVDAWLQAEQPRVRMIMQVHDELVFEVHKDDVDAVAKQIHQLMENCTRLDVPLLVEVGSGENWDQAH
sequence,measurement,value
AAAAAAAAAAAAAAAAAAAAAAAAAAAAAAAAGCGCGCGC / GCGCGCGCTTTTTTT [40mer polyA DNA (40mer template / 15mer primer)],pKd,7.45
